In publication PMC7641127, “MCL1 binds and negatively regulates the transcriptional function of tumor suppressor p73” (Cell Death & Disease, 2020):
*: point of attachment. FITC = O=C1OC2(c3ccc(O)cc3Oc3cc(O)ccc32)c2ccc(NC(=S)*)cc21; Ahx = NCCCCCC(=O)O

Molecular target: recombinant MCL1 (human) (UniProt Q07820)
Assay: fluorescence polarisation; direct FPA: recombinant MCL1 with FITC-peptide, 30 min, 1× PBS pH 7.4; limit of detection of the probe 5 nM

Sequence of recombinant MCL1 (human) (Q07820 whole entry): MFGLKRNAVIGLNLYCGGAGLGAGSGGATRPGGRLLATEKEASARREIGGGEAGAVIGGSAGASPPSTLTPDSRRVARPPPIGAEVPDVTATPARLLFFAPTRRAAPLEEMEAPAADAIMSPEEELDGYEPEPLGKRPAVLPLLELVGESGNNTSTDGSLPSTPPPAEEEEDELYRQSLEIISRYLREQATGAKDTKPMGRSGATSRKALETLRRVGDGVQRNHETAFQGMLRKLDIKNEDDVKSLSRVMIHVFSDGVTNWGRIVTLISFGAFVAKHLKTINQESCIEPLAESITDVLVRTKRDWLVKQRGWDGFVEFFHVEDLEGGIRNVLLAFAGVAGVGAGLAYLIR

Binder: {FITC-Ahx}-GQVGRQLAIIGDDINRRYD-NH2 [FITC-AHX-BAK peptide]
- Kd: < 5 nM
